Target: human GPC3 on cells (human) (UniProt P51654)
Assay: cell-based or functional assay

Binder | IC50 (M), Incucyte human TDC HepG2-Nuclight green assay, E:T 15:1, 72 h [M] | HepG2 on Incucyte IC50 (M), human TDC, E:T 15:1, 60 h [M] | Huh7 on xCELLigence IC50 (M), human TDC, E:T 15:1, 60 h [M] | IC50 (M), Incucyte human TDC HepG2-Nuclight green assay, E:T 15:1 (Step 2) [M] | Max % Killing, Incucyte human TDC HepG2-Nuclight green assay, 72 h [%] | HepG2 on Incucyte Max % killing, 60 h [%] | Huh7 on xCELLigence Max % killing, 60 h [%] | Max % Killing, Incucyte human TDC HepG2-Nuclight green assay (Step 2) [%]
A022600096 (protein) DVQLVESGGGLVQPGGSLRLSCVASGYVHKINFYGWYRQAPGKEREKVAHISIGDQTDYADSAKGRFTISRDESKNTVYLQMNSLRPEDTALYYCRALSRIWPYDYWGQGTLVTVSSGGGGSGGGGSGGGGSGGGGSGGGGSGGGGSGGGGSEVQLVESGGGLVQPGGSLRLSCVASGFTFSSFAMTWVRRPPGKGLEWVATITNGGVTSYRDSVKGRFTISRDNAKNTLYLEMTSLNPEDTAVYICANARRTGPRAPTDIGSYRGQGTLVTVSSGGGGSGGGGSGGGGSGGGGSGGGGSGGGGSGGGGSEVQLVESGGGVVQPGGSLRLSCAASGFTFRSFGMSWVRQAPGKGPEWVSSISGSGSDTLYADSVKGRFTISRDNSKNTLYLQMNSLRPEDTALYYCTIGGSLSRSSQGTLVTVSSA | 1.4e-09 | – | – | – | 72 | – | – | –
A022600122 (protein) DVQLVESGGGVVQPGGSLRLSCVASGYVHKINFYGWYRQAPGKEREKVAHISIGDQTDYADSAKGRFTISRDESKNTVYLQMNSLRPEDTALYYCRALSRIWPYDYWGQGTLVTVSSGGGGSEVQLVESGGGLVQPGGSLRLSCVASGFTFSSFAMTWVRRPPGKGLEWVATITNGGVTSYRDSVKGRFTISRDNAKNTLYLEMTSLNPEDTAVYICANARRTGPRAPTDIGSYRGQGTLVTVSSGGGGSGGGGSGGGGSGGGGSGGGGSGGGGSGGGGSEVQLVESGGGLVQPGGSLRLSCVASGSIFRSVFSSSTMEWYRQPPGKKRELVARIAPGDGTNYGALYADSVKGRFTISRDDAKKTVDLQMNSLKPEDTGVYFCASGVAWGQGTLVTVSSGGGGSGGGGSGGGGSGGGGSGGGGSGGGGSGGGGSEVQLVESGGGVVQPGGSLRLSCAASGFTFRSFGMSWVRQAPGKGPEWVSSISGSGSDTLYADSVKGRFTISRDNSKNTLYLQMNSLRPEDTALYYCTIGGSLSRSSQGTLVTVSSA | – | 5.3e-10 | 2.61e-10 | 4.45e-10 | – | 93 | 101 | 92
A022600131 (protein) DVQLVESGGGVVQPGGSLRLSCVASGYVHKINFYGWYRQAPGKEREKVAHISIGDQTDYADSAKGRFTISRDESKNTVYLQMNSLRPEDTALYYCRALSRIWPYDYWGQGTLVTVSSGGGGSEVQLVESGGGLVQPGGSLRLSCVASGFTFSSFAMTWVRRPPGKGLEWVATITNGGVTSYRDSVKGRFTISRDNAKNTLYLEMTSLNPEDTAVYICANARRTGPRAPTDIGSYRGQGTLVTVSSGGGGSGGGGSGGGGSGGGGSEVQLVESGGGLVQPGGSLRLSCVASGSIFRSVFSSSTMEWYRQPPGKKRELVARIAPGDGTNYGALYADSVKGRFTISRDDAKKTVDLQMNSLKPEDTGVYFCASGVAWGQGTLVTVSSGGGGSGGGGSGGGGSGGGGSGGGGSGGGGSGGGGSEVQLVESGGGVVQPGGSLRLSCAASGFTFRSFGMSWVRQAPGKGPEWVSSISGSGSDTLYADSVKGRFTISRDNSKNTLYLQMNSLRPEDTALYYCTIGGSLSRSSQGTLVTVSSA | – | – | – | 4.44e-10 | – | – | – | 94
A022600104 (protein) DVQLVESGGGVVQPGGSLRLSCVASGYVHKINFYGWYRQAPGKEREKVAHISIGDQTDYADSAKGRFTISRDESKNTVYLQMNSLRPEDTALYYCRALSRIWPYDYWGQGTLVTVSSGGGGSGGGSEVQLVESGGGLVQPGGSLRLSCVASGFTFSSFAMTWVRRPPGKGLEWVATITNGGVTSYRDSVKGRFTISRDNAKNTLYLEMTSLNPEDTAVYICANARRTGPRAPTDIGSYRGQGTLVTVSSGGGGSGGGGSGGGGSGGGGSGGGGSGGGGSGGGGSEVQLVESGGGVVQPGGSLRLSCAASGFTFRSFGMSWVRQAPGKGPEWVSSISGSGSDTLYADSVKGRFTISRDNSKNTLYLQMNSLRPEDTALYYCTIGGSLSRSSQGTLVTVSSA | 2.13e-09 | – | – | – | 90 | – | – | –
A022600102 (protein) DVQLVESGGGVVQPGGSLRLSCVASGYVHKINFYGWYRQAPGKEREKVAHISIGDQTDYADSAKGRFTISRDESKNTVYLQMNSLRPEDTALYYCRALSRIWPYDYWGQGTLVTVSSAAAEVQLVESGGGLVQPGGSLRLSCVASGFTFSSFAMTWVRRPPGKGLEWVATITNGGVTSYRDSVKGRFTISRDNAKNTLYLEMTSLNPEDTAVYICANARRTGPRAPTDIGSYRGQGTLVTVSSGGGGSGGGGSGGGGSGGGGSGGGGSGGGGSGGGGSEVQLVESGGGVVQPGGSLRLSCAASGFTFRSFGMSWVRQAPGKGPEWVSSISGSGSDTLYADSVKGRFTISRDNSKNTLYLQMNSLRPEDTALYYCTIGGSLSRSSQGTLVTVSSA | 1.72e-09 | – | – | – | 94 | – | – | –

Now from value to binder, other results behind:

IC50 (M), Incucyte human TDC HepG2-Nuclight green assay, E:T 15:1, 72 h [M] | HepG2 on Incucyte IC50 (M), human TDC, E:T 15:1, 60 h [M] | Huh7 on xCELLigence IC50 (M), human TDC, E:T 15:1, 60 h [M] | IC50 (M), Incucyte human TDC HepG2-Nuclight green assay, E:T 15:1 (Step 2) [M] | Binder | Max % Killing, Incucyte human TDC HepG2-Nuclight green assay, 72 h [%] | HepG2 on Incucyte Max % killing, 60 h [%] | Huh7 on xCELLigence Max % killing, 60 h [%] | Max % Killing, Incucyte human TDC HepG2-Nuclight green assay (Step 2) [%]
2.04e-09 | 1.23e-09 | 7.11e-09 | 5.43e-10 | A022600103 (protein) DVQLVESGGGVVQPGGSLRLSCVASGYVHKINFYGWYRQAPGKEREKVAHISIGDQTDYADSAKGRFTISRDESKNTVYLQMNSLRPEDTALYYCRALSRIWPYDYWGQGTLVTVSSGGGGSEVQLVESGGGLVQPGGSLRLSCVASGFTFSSFAMTWVRRPPGKGLEWVATITNGGVTSYRDSVKGRFTISRDNAKNTLYLEMTSLNPEDTAVYICANARRTGPRAPTDIGSYRGQGTLVTVSSGGGGSGGGGSGGGGSGGGGSGGGGSGGGGSGGGGSEVQLVESGGGVVQPGGSLRLSCAASGFTFRSFGMSWVRQAPGKGPEWVSSISGSGSDTLYADSVKGRFTISRDNSKNTLYLQMNSLRPEDTALYYCTIGGSLSRSSQGTLVTVSSA | 92 | 96 | 71 | 90
2.14e-09 | – | – | – | A022600105 (protein) DVQLVESGGGVVQPGGSLRLSCVASGYVHKINFYGWYRQAPGKEREKVAHISIGDQTDYADSAKGRFTISRDESKNTVYLQMNSLRPEDTALYYCRALSRIWPYDYWGQGTLVTVSSGGGGSGGGGSGGGGSGGGGSEVQLVESGGGLVQPGGSLRLSCVASGFTFSSFAMTWVRRPPGKGLEWVATITNGGVTSYRDSVKGRFTISRDNAKNTLYLEMTSLNPEDTAVYICANARRTGPRAPTDIGSYRGQGTLVTVSSGGGGSGGGGSGGGGSGGGGSGGGGSGGGGSGGGGSEVQLVESGGGVVQPGGSLRLSCAASGFTFRSFGMSWVRQAPGKGPEWVSSISGSGSDTLYADSVKGRFTISRDNSKNTLYLQMNSLRPEDTALYYCTIGGSLSRSSQGTLVTVSSA | 85 | – | – | –
